Test: yeast display, Sf9 membrane polyspecificity reagent, FACS + sequencing; frameworks hold sequencing errors
Outline: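 A synthetic nanobody library was expressed on Saccharomyces cerevisiae BJ5465 by galactose induction for 36–48 hours. The library was stained for 1 hour at 4 °C with 10% biotinylated, detergent-solubilized Sf9 membrane reagent and enriched with streptavidin microbeads before FACS. Low and high (top ~1%) gates were set on anti-HA fluorescence for expression and streptavidin fluorescence for reagent binding, and each polyreactivity label reflects the gate of origin.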

Row | Sequence | polyreactivity (PSR sort gate)
1 | QVQLVESGGGLDQAGGSLRLICAASGLTFYLYAMGWYRQAPGKERELVAAISTRGGSTRYADSVKGRFTISRDNAKNTVYLQMNSLKPEDTAVFDCNAVSKWLEYDYWGQGTQVTVSS | high polyreactivity
2 | QVQLVESGGGLVQAGGRLRLSCAASGFTFHNNVMGWYRQAPGKERELVATISKSGGSTYYADSVKGRFTISRDHAKNTVYLQMNSLKPEDTAVYYCARRYRDYGRYGYWGQGTQVTVSS | high polyreactivity
3 | QVQLVESGGGLVQAGGSLRLSCAASGRTFRGNAIGWYRQAPGKERELVAAIRWNGGSTYYADSVKGRFTISRDNAKNTVYLQMNSLKPEDTAVYYCAVSYWYSRYDYWGQGTQVTVSS | high polyreactivity
4 | QVQLVESGGGLVQAGGSLGLSCAASGFIVGYYTMGWDRQAPGKERELVAAISSSGGRTYDADSVKGRFTISRDKAKNTVYFQMNSLKPEDTAVYYCNADRTLRFGYGYCGQGTQVTVSS | low polyreactivity
5 | QVQLVESAGGLVQAGGILRLSCAASGRTFEGNPMGWYRQAPGKERELVAAITSGGRTNYADSVKGRLTISRDNAKNTVYLQMNSLKPEDTAVYYCAATSTYRSYREYDYWGQGTQVTVSS | low polyreactivity
6 | QVQLVESGGGLVQAGGSLRLSCAASEFIFARNGMGWYRQAPGKERELVAAITNSGSTYADSVKGRFTISRDNAKNTVYLQMNSLKPEDTAVYYCNKDPGNVSSYTGGGYWGQGTQVTVSS | low polyreactivity
7 | QDQLVESVVGLVQAGGSLRLSCAASGRIFEDYAMGWYRQAPGKERELVARICSGDSTNYADSVKGRFTISRDNAKNTVYLQMNSLKPEDTAVYYCAAEGGVQEFDFCGQGTQVTVSS | low polyreactivity
8 | QVQLVESGGGLVQAGGSLRLSCAASGSTFLNNAMGWYRQAPGKERELVASIRYSSARTYYADTVKGRFTISRDNAKNTVYLQMNSLKPEDTAVYYCAADRWVGYRVYKYDYWGQGTQVTVSS | high polyreactivity
9 | QVQLVESGGGLVQAGGSLRLSCAASGLTFDYYAMGWYRQAPGKERELVAAITRRGGGTYYADSVKGRFTISRDNAKNTVYLQMNSLTPEDTAVYYCNADRRSWSALHRYDYWGQGTQVTVSS | high polyreactivity
10 | QVQLVESGGGLVQAGGSLRLSCAASGRIFSLNAMGWYRQAPGKERELVAGIRKRGGSTYYADSVKGRFTISRDNAKNTVYLQMNSLKPEDTAVYYCAADRFAFYGRYRGPYYYWGHGTQVTVSS | high polyreactivity
11 | QVQLVESGGGLVQAGGSLRLSCAASGRTFWGYVKGWYRQAPGKERELVAAITSSTGRTYYADSVKGRFTISRDNAKNTVYLQMNSLKPEDTAVYYCAAGYNGYGLQYYYWGQGTQVTVSS | high polyreactivity
12 | QVQLVESGGGLVQAGGSLRLSCAASGSTIYYYALGWYRQAPGKERELVAAISWSGASTFYADSVKGRFTISRDNAKNTVDLKMNSLKPVDTAVYYCAAVIKGWGQGTQVTVSS | high polyreactivity
13 | QVQVVDSGGGLVQAGGSLLLSCAASGSILGFNAMGWYRQSPGKEMELVASISSSGDSTYYADSEKGRFTISRDNAKNTVYLQMNSLKPEDTAVYYCATEGRTDYNREMEYWGQGSQVTVSS | low polyreactivity
14 | QVQLVESGGGLVQAGGRLRLSCAASGRIFPVYTMGWYRQAPGKERELVAAISGNGASTYYADSVKGRFTISRDNAKNTVYLQMNSLKPEDTAVYYCAAYFYYWGSTFVRYEYWGQGTQVTVSS | high polyreactivity
15 | QVQLVESGGGLVQAGGSLRLSCAASGRTFGYNTMGWYRQAPGKEREFVATIRTNGVSTYYADSVKGRFTISRDNAKNTVYLQMNSLKPEDTAVYYCNAPRTRKQKTIYVNAPGNYWGQGTQVTVSS | low polyreactivity
16 | QVQLVESGGGLVQAGGSLRLSCAASGFIFYYAMGWYRQAPVKERELVAAISRGGSTNYADSVKGRFTISRDNAKNTVYLQMNSLKPEDTAVYYCNARVYSSRARWGTYDYWGQGTQVTVSS | high polyreactivity
17 | QVQLVESGGCLVQAGGSLRLSCAASGITFKYYVMGWYRQAPGKEREFVAAISWGGGSPYYADSVKGRCTISRDNAKNTVYVQMNSLKPEDTAVYYCAATSAYGRYRYYYWGQGTQVTVSS | high polyreactivity
18 | QVQLEESGGGLVQAGGRLRLSSAASGRTFMPNGMGWYRQAPGKERELVAAISWRGGSTYYADSVKGRFTISRDNAKNTVYLQMNSLKPEDTAVYYCNARVSRQYDYWGQGTEVTVSS | low polyreactivity
19 | QVQLVESGGGLVQAGGSLRLSCAASGRTFYEYAKGWYRQAPGKERELVAGITSGGSTNYADSVKGRFTISRDNEKNTVYLQMNSLKPEDTAVYYCAASYWGYEYDYWGQGTQVTVSS | low polyreactivity
20 | QVQLVESGGGLVQAGGSLLLSCAASGRIFRYNAMGWYRQAPGKERELVAAISWTVGRTYYADSVKGRFTISRDNAMNTVYLQMNSLKPEDTAVYYCATYFRVWYRSYDYWGQGTQVTVSS | high polyreactivity
21 | PVQLQESGGGLVQAGRSLRMSSAASGNIFDADIMGWYRQAPGKERELVACIADGGSTNYADSVKGRFTISRDNAKYTVYLQMNSLKPEDTAVYYCAAIAYPDIPTCFDYDSDYFFRGQGTQVTVSS | low polyreactivity

Row | Sequence | polyreactivity (PSR sort gate)
22 | QVQLVESGGGLVQAGGSLRLSSAASGITLKRYALGWYRHAPGKERELVAAITGRGGGTNYADSVKGRFTISRDNAKNTVYLQMNSLKPEDTAVYYCAARYLQGRYDYWGQGTQVTVSS | high polyreactivity
23 | QVQLVQSGGCLVQAGGSLRLSCSASGSIFVHHDMGWYRQAPGKERELVAAISWGGGRTYYADSVKGRFTISRDNAKNTVYLQMNSLKPEDTAVYYCAVDGGEFSSYGYWGQGTQVTVSS | low polyreactivity
24 | QVQLVESVGVLVQAGGSLRLSCAASVSIFDYNAMGWYRQAPGKERELVADITISDDSTYYADSVKGRFTISRDNAKNTVYLQMNSLKPEDTAVYYCAADIKYYWYYYYWAYAYDYWGQGTQVTVSS | high polyreactivity
25 | QVQLVESGGGLVQAGGSLRLNCAASGSTFGYYAMGWYRQAPGKQRELVAAITSGASTNYADSVKGRFTISRDNAKNTVYLLMNSLKPEDTAVYYCSAGFQTRTPLNEFDYWGQGTQVTVSS | low polyreactivity
26 | QFQLVESGGGLVQAGGSLRLSCAASGSIFTLYDMGWYRQAPGNERELVAAISSGGGSTYYADSVKGRFTISRDNAKNTVYLQMNSLKPEDTAVYYCAARNRRAKYGDWGQGTQVTVSS | high polyreactivity
27 | QVQLVESGGGLVQAGGSLRLSCAASGYTFAYNGMGWYRQAPGKERELVAVIDWSTGDTYYADSVKGRFTISRDNAKNTVYLQMNSLKPEDTAVYYCAADFFEGLYVFWGQGTQVTVSW | low polyreactivity
28 | QVQLVESGGGLVQAGGSLRLSCAASGRIFYPNVMGWYRQAPGKERELVAAISASGGRTYYADSVKGRFTISRDNAKNTVYLQMNSLKPEDTAVYYCAADTVPSTRSWDTRYWEYEYWGQGTQVTVSS | low polyreactivity
29 | QVQLVESGGGLVQAGGSLRLSSAAAGRLLSRDAMGWYRQAPGKERELVATLSSGGGTYYADSVKGRFTISRDNSKNTVYLQMNSLKRVDTAVYYCAVQAWYGRYYYWGQGTQVTVSS | high polyreactivity
30 | QVQLVESGGGLVQAGGSLRLSCAASGIIFPTYAMGWYRQAPGKERELVAAITSGGSTYYADSVKGRFTISRDNAKNTVYLQMNSLKPEDTAVYYCAAAYLGYGAVQPSYEGGYWGQGTQVTVSS | low polyreactivity
31 | QVQLVESGAGLFQAGGRLRISCAPSGFIFVFNAMGWYRQAPGKERELVAAINRGDITNYADSVKGRFTISRDNAKNTVYLQMHSLSPVDTAVYFCAADGEDSLWTGYDYDYWGQGTQVTVST | low polyreactivity
32 | QEQLQESGSGLVQAGGSLRLSCAASGNIFQDWFMGWYRQAPGKERELVAAISPGANTNYADSVKGRFTISRDNAKNSVYLQMNSLKPEDTAVYYCAAESLFDDYYGYWGQGTQVTVSS | low polyreactivity
33 | QVQLVESGGGLVQAGGSLRLSCAASGFTFNGYAMGWYRQAPGHERELVAGITRRGGITYYADSVKGRFTISRDNAKNTVYLPMNSLKPEDTAVYYCARDYIGHALIHHASLYYYWGQGTQVTVSS | high polyreactivity
34 | QVQLVETVGGLVQAGGSLRLTCAASGFTIYYNAMGWYRQAPGKERELVASISSNGTSTYYADSVKGRFTISRDNAKNTVYLQMNSLKPEDTAVYYCNVDIFDPRTYDYWGQGTQVTVSS | low polyreactivity
35 | QVQLVESGGGLVQAGGSLRLSCAASGSIFKHNDMGWYRQAPGKERELVAAISRSGGSTYYADSVKGRFTISRDNAKNTVYLQMNSLKPEDTAVYYCAKDGVGAPSTYNYWGQGTQVTVSS | high polyreactivity
36 | QDQLVESGGGLVQAGGSLRLSCAASGRTFYYYTMGWDRQAPGKERELVAAISRRGGRTYYADSVKRRFTISRDNAKNTVYLQMTSLKPEDTAVYYCAADRDHVVDFDYWGQGTQVTVSS | high polyreactivity
37 | QVQLVESGGGLVQAGGSLRLSCAASGSIFYVNTMGWYRQAPGKERELVAAISDSSGGTYYADSVKGRFTISRDNAKNTVYLQMNSLKPEDPAVYYCARDSTSHYDSGPYSSPFDYWGQGTQVTVSS | low polyreactivity
38 | QVQLVESGGGLVQAGGSLRLSCAASGSIFGRNAMGWYRQAPGKERELVAAISGRASSTFYADSVKGRFTISRDNAKNTVYLQMNSLKPEDTAVYYCAARNSYGGPTYEHYYWGQGTQVTVSS | high polyreactivity
39 | QVQLVESGGGLVQAGGSLRLRCAASGRIFREYAMGWYRQAPGKERELVAAITASGGGTYYADSVKGRFTISRDNAKNTVYLQMNSLKPEDTAVYYCAARYSSRTRNDYWGQGTQVTVSS | low polyreactivity
40 | QVQLVESGGGLVQAGGSLRLSCAASGFIFPPYAMGWYRQAPGTERELVAAIRISGGSTYYADSVKGRFTISRDNAKNTVYFHLNSLKPEDTAVYYCAARYVSSTPAFAYYYWGQGTQVTVSS | high polyreactivity
41 | QVQLVESGGGLVKAGGSLRLRCAASGSIFRYYVMGWYRQAPGKERELVAAISGGSTYYADSVKGRFTISRDNAKNTVYLQLNSLKPEDTAVYYSAARGKRRSGGENYAYGYWGQGTQVTVSS | high polyreactivity

Source: the nanobody polyreactivity screen of Harvey et al. (2022)
